Laboratory results taken from US12214004B2, “Strains having effects of preventing or treating cancers” (Genome And Company, priority 2018, dated 2025).
Where two headings read alike, the source gives them in different places.

What was measured:
HCT116 [1] = assay: HCT116 cell viability, anticancer chemotherapeutic agent with GEN3033
HCT116 [2] = assay: Cell lysis ability of PBMC against cancer cells (CFSE/7-AAD), MG731; format: cell-based; conditions: cancer cell death caused by PBMC set to 100%
Description: (§1) PBMCs (peripheral blood mononuclear cells) were collected from the human blood using Ficoll, and then red blood cells were removed through RBC lysis buffer, and the number of living cells was counted, and the cells were cultured for 24 hours in a round bottom 96 well plate containing lactic acid bacteria (6×10^5/50 ul/well) by adding PBMC 3 x 10^4 cells/50 μl to each well.
(§2) The colon cancer cell line HCT116 was mixed with 5 μM of CFSE (carboxyfluorescein succinimidyl ester) in RPMI medium without FBS, and reacted at 37° C. for 5 minutes, and then RPMI1640 medium containing FBS was added, and stored on ice for 10 minutes. After the supernatant was removed by centrifugation, the obtained cells were mixed with RPMI1640 containing 10% FBS, and then the number of cells was counted, and 3×10^4 cells/100 μl were added to each well of the above prepared 96 well plate.
Staining for CFSE and 7-AAD using FACSDiVa software (BD Biosciences) was measured to confirm the cell lysis ability of PBMC against cancer cell lines, and the results are shown in FIG. 9.

HCT116 [3] = assay: Cell lysis ability of PBMC against cancer cells (CFSE/7-AAD), GEN3033; format: cell-based, human; conditions: cancer cell death caused by PBMC set to 100%
Description: as §1, with “(3×10^5/50” for “(6×10^5/50”
as §2
Staining for CFSE and 7-AAD using FACSDiVa software (BD Biosciences) was measured to confirm the cell lysis ability of PBMC against cancer cell lines, and the results are shown in FIG. 29.

MC38 cancer cells = assay: MC38 tumor-induced model in C57BL/6 mice, MG731; format: in vivo, mouse; conditions: administered in combination with MG731
Description: Prior to constructing a tumor model, a sample of lactic acid bacteria was administered to mice for 2 weeks to increase intestinal establishment and immunity, and then 2×10^5 MC38 cancer cells were injected subcutaneously in the vicinity of the right hip of 8 C57BL/6 mice per group to construct a tumor-induced model. Simultaneously with injection of tumor cells, a sample of lactic acid bacteria was orally administered to the animal model for 3 weeks (from Monday to Saturday). The sample of lactic acid bacteria to be administered was diluted in 200 μL of PBS so as to be 1×10^9 of CFU per head and then administered orally.

HCT116 [4] = system: HCT116
[5] = HCT116, combination treatment with 0.5% GEN3033, compared to the agent alone

With `CC(=O)O[C@H]1C(=O)[C@@]2(C)[C@H]([C@H](OC(=O)c3ccccc3)[C@]3(O)C[C@H](OC(=O)[C@H](O)[C@@H](NC(=O)c4ccccc4)c4ccccc4)C(C)=C1C3(C)C)[C@]1(OC(C)=O)CO[C@@H]1C[C@@H]2O` [paclitaxel] the cancer cell death (HCT116 [1]; [5]) was “remarkably high”.

For Atezolizumab [anti-PD-L1], the “cancer cell death (cytotoxicity)” value (HCT116 [2]; alone) was 133.6%, the “cancer cell death (cytotoxicity)” value (HCT116 [2]; in combination with MG731) was 221.6% and the “cancer cell death (cytotoxicity)” value (HCT116 [3]; alone) was 123.5%. The “cancer cell death (cytotoxicity)” value (HCT116 [3]; in combination with GEN3033) was 154.0%.

In the case of `O=P1(N(CCCl)CCCl)NCCCO1` (stereo not drawn) [cyclophosphamide], the cancer cell death (HCT116 [1]; [5]) is reported as “remarkably high”.

In the case of Ipilimumab [antiCTLA-4], the “cancer cell death (cytotoxicity)” value (HCT116 [2]; alone) is reported as 108%, the “cancer cell death (cytotoxicity)” value (HCT116 [2]; in combination with MG731) is reported as 214.4% and the “cancer cell death (cytotoxicity)” value (HCT116 [3]; alone) is reported as 116.0%. For the same molecule, the “cancer cell death (cytotoxicity)” value (HCT116 [3]; in combination with GEN3033) was 128.3%.

In the case of `O=C1[O][Pt]2([NH][C@@H]3CCCC[C@H]3[NH]2)[O]C1=O` [oxaliplatin], the tumor inhibitory effect (MC38 cancer cells) is reported as “more excellent”, the cell viability (HCT116 [4]) is reported as ≥ 90% and the cancer cell death (HCT116 [1]) is reported as “remarkably high”.

In the case of `N.N.[Cl][Pt][Cl]` [Cisplatin, cisplatin], the cell viability (HCT116 [1]; HCT116, 7 μM Cisplatin in combination with 0.5% GEN3033, compared to 7 μM Cisplatin alone) is reported as “remarkably reduced”.

In the case of `O=c1[nH]cc(F)c(=O)[nH]1` [5-FU, fluorouracil], the cancer cell death (HCT116 [1]; [5]) is reported as “remarkably high”.
